Measured values from US20250277038A1.

Legend:
[1] = biological target: human PD-L1 (Acro, Catalog Number: H5229) (human) (UniProt Q9NZQ7); test: BLI, Octet RED96e, antibody on AHC sensor, antigen 100 nM, 1:1 fit
[2] = biological target: monkey PD-L1 protein on CHOK1 cell (monkey (cyno)); test: FACS blocking assay: antibody titrated against Biotin-PD-1-mFc on CHOK1-cynoPD-L1 cells, SA488 detection
[3] = biological target: human PD-L1 protein on HEK293 cell (human) (UniProt Q9NZQ7); test: FACS blocking assay: antibody titrated against Biotin-PD-1-mFc on HEK293-hPD-L1 cells, SA488 detection
Sequence of human PD-L1 protein on HEK293 cell (human) (Q9NZQ7 19-290): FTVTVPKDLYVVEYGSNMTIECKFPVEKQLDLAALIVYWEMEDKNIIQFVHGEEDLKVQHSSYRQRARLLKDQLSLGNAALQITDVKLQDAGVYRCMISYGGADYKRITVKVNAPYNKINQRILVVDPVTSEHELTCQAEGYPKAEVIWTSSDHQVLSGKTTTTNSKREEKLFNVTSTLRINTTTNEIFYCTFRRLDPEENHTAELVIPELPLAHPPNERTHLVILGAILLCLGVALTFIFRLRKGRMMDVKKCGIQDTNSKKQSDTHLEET

Sequence of human PD-L1 (Acro, Catalog Number: H5229) (human) (Q9NZQ7 19-238 limits assumed): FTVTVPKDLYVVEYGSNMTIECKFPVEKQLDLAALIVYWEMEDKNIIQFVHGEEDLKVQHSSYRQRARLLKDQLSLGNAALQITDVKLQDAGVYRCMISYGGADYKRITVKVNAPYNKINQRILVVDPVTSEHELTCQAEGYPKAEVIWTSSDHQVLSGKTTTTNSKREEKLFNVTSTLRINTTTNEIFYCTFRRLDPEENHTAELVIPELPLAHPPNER

Kd [1]: 0.484 nM
koff [1]: 0.000311 s⁻¹
kon [1]: 644000 M⁻¹ s⁻¹
IC50 (read off the curve) [2]: 0.9 µg/mL
IC50 (read off the curve) [3]: 0.08 µg/mL
Substance: Atezolimumab (antibody)
